B1: LOC100129726 (parent)
chain: VHTGCHKKLGPEARRPRTRWGKN
B2: SPDEF (parent)
chain: FQELAGKELCAMSEEQFRQRSPLG
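Note: lentivirally expressed fusions sorted by FACS into six bins by GFP to DsRed ratio, PSI derived from sequencing read proportions per bin multiplied by bin number.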

The variants in one data set derive from B1. The data set can be described thus: protein stability index of a GFP-peptide fusion (GPS, HEK-293T) (PSI 1-6); higher = more stable. The following applies: c terminus: native.
Regarding VHTFCHKKLGPEARRPRTRWGKN [G4F], the protein stability index turned out to be 2.72.
The same measure, in the same setting: for VHTDCHKKLGPEARRPRTRWGKN [G4D] the value was 2.33.
The same measure, in the same setting: then VHTMCHKKLGPEARRPRTRWGKN [G4M], with 2.44; and VHTICHKKLGPEARRPRTRWGKN [G4I], with 2.66; and VHTKCHKKLGPEARRPRTRWGKN [G4K], with 2.71.
On the same count and under the same terms, for VHTRCHKKLGPEARRPRTRWGKN [G4R] the value was 2.47.
VHTECHKKLGPEARRPRTRWGKN [G4E]: the protein stability index is 3.67.
Take VHTSCHKKLGPEARRPRTRWGKN [G4S]: the protein stability index came to 2.56.
The same measure, in the same setting: then VHTCCHKKLGPEARRPRTRWGKN [G4C], with 2.51; and VHTNCHKKLGPEARRPRTRWGKN [G4N], with 1.01.
The same measure, in the same setting: then VHTPCHKKLGPEARRPRTRWGKN [G4P], with 2.15; and VHTLCHKKLGPEARRPRTRWGKN [G4L], with 2.91; and VHTVCHKKLGPEARRPRTRWGKN [G4V], with 2.14.
In the case of VHTGEHKKLGPEARRPRTRWGKN [C5E], the protein stability index stood at 2.57.
The same measure, in the same setting: for VHTGFHKKLGPEARRPRTRWGKN [C5F] the value was 1.85.
Same read-out and setting: then VHTGGHKKLGPEARRPRTRWGKN [C5G], with 2.34; and VHTGAHKKLGPEARRPRTRWGKN [C5A], with 2.57.
As to HHTGCHKKLGPEARRPRTRWGKN [V1H], the protein stability index came out at 2.43.
In the case of IHTGCHKKLGPEARRPRTRWGKN [V1I], the protein stability index is 2.54.
Still for that read-out and setting: for CHTGCHKKLGPEARRPRTRWGKN [V1C] the value was 2.12; for RHTGCHKKLGPEARRPRTRWGKN [V1R], 2.02; for LHTGCHKKLGPEARRPRTRWGKN [V1L], 1.84.
Still for that read-out and setting: for SHTGCHKKLGPEARRPRTRWGKN [V1S] the value was 1.99; for EHTGCHKKLGPEARRPRTRWGKN [V1E], 2.96.
Same read-out and setting: for MHTGCHKKLGPEARRPRTRWGKN [V1M] the value was 1.73; for VYTGCHKKLGPEARRPRTRWGKN [H2Y], 1.85.
Consider VPTGCHKKLGPEARRPRTRWGKN [H2P], for which the protein stability index amounted to 2.05.
The same measure, in the same setting: then VNTGCHKKLGPEARRPRTRWGKN [H2N], with 2.5; and VRTGCHKKLGPEARRPRTRWGKN [H2R], with 4.
Consider VTTGCHKKLGPEARRPRTRWGKN [H2T], for which the protein stability index is 1.49.
On the same count and under the same terms, then VDTGCHKKLGPEARRPRTRWGKN [H2D], with 1.82; and VGTGCHKKLGPEARRPRTRWGKN [H2G], with 2.38.
Still for that read-out and setting: then VKTGCHKKLGPEARRPRTRWGKN [H2K], with 1.94; and VMTGCHKKLGPEARRPRTRWGKN [H2M], with 2.79; and VQTGCHKKLGPEARRPRTRWGKN [H2Q], with 2.44.
Take VVTGCHKKLGPEARRPRTRWGKN [H2V]: the protein stability index worked out at 2.99.
On the same count and under the same terms, then VLTGCHKKLGPEARRPRTRWGKN [H2L], with 2.38; and VATGCHKKLGPEARRPRTRWGKN [H2A], with 2.13.
Still for that read-out and setting: then VWTGCHKKLGPEARRPRTRWGKN [H2W], with 1.38.
As to VHDGCHKKLGPEARRPRTRWGKN [T3D], the protein stability index is 3.27.
The same measure, in the same setting: then VHYGCHKKLGPEARRPRTRWGKN [T3Y], with 1.01; and VHIGCHKKLGPEARRPRTRWGKN [T3I], with 2.94.
The same measure, in the same setting: then VHPGCHKKLGPEARRPRTRWGKN [T3P], with 1.67; and VHFGCHKKLGPEARRPRTRWGKN [T3F], with 1.95.

The variants in another data set derive from B2. The data set is described as above. The conditions noted are these: c terminus: a fixed tail appended.
With FQELAGKELCAMSEEQFRQRSTLG [P22T], the protein stability index is 2.63.
Same read-out and setting: then FQELAGKELCAMSEEQFRQRSDLG [P22D], with 2.62.
The same measure, in the same setting: then FQELAGKELCAMSEEQFRQRSGLG [P22G], with 2.61; and FQELAGKELCAMSEEQFRQRSELG [P22E], with 3.15.
On the same count and under the same terms, for FQELAGKELCAMSEEQFRQRSKLG [P22K] the value was 2.77.
As for FQELAGKELCAMSEEQFRQRSSLG [P22S], the protein stability index amounted to 2.92.
The same measure, in the same setting: for FQELAGKELCAMSEEQFRQRSLLG [P22L] the value was 2.88; for FQELAGKELCAMSEEQFRQRSNLG [P22N], 2.59.
The same measure, in the same setting: then FQELAGKELCAMSEEQFRQRSCLG [P22C], with 2.62; and FQELAGKELCAMSEEQFRQRSWLG [P22W], with 1.75; and FQELAGKELCAMSEEQFRQRSALG [P22A], with 2.64.
On the same count and under the same terms, then FQELAGKELCAMSEEQFRQRSQLG [P22Q], with 2.74; and FQELAGKELCAMSEEQFRQRSYLG [P22Y], with 2.2; and FQELAGKELCAMSEEQFRQRSVLG [P22V], with 2.87.
With FQELAGKELCAMSEEQFRQRSRLG [P22R], the protein stability index was 2.53.
The same measure, in the same setting: for FQELAGKELCAMSEEQFRQRSFLG [P22F] the value was 2.43.
For FQELAGKELCAMSEEQFRQRSILG [P22I], the protein stability index came out at 2.42.
The same measure, in the same setting: then FQELAGKELCAMSEEQFRQRSHLG [P22H], with 3.45; and FQELAGKELCAMSEEQFRQRSMLG [P22M], with 2.56; and FQELAGKELCAMSEEQFRQRDPLG [S21D], with 3.26.
For the variant FQELAGKELCAMSEEQFRQRTPLG [S21T], the protein stability index was 2.59.
Still for that read-out and setting: for FQELAGKELCAMSEEQFRQRMPLG [S21M] the value was 2.74.
Turning to FQELAGKELCAMSEEQFRQRGPLG [S21G], the protein stability index came out at 2.52.
The same measure, in the same setting: then FQELAGKELCAMSEEQFRQRPPLG [S21P], with 2.43; and FQELAGKELCAMSEEQFRQRAPLG [S21A], with 2.73; and FQELAGKELCAMSEEQFRQRCPLG [S21C], with 2.51.
On the same count and under the same terms, for FQELAGKELCAMSEEQFRQRRPLG [S21R] the value was 2.95.
Still for that read-out and setting: for FQELAGKELCAMSEEQFRQRKPLG [S21K] the value was 2.44; for FQELAGKELCAMSEEQFRQRHPLG [S21H], 2.82; for FQELAGKELCAMSEEQFRQREPLG [S21E], 2.58.
Consider FQELAGKELCAMSEEQFRQRIPLG [S21I], for which the protein stability index came to 2.43.
Still for that read-out and setting: then FQELAGKELCAMSEEQFRQRQPLG [S21Q], with 2.98; and FQELAGKELCAMSEEQFRQRWPLG [S21W], with 2.4.
On the same count and under the same terms, for FQELAGKELCAMSEEQFRQRNPLG [S21N] the value was 2.6; for FQELAGKELCAMSEEQFRQRVPLG [S21V], 2.99.
On the same count and under the same terms, for FQELAGKELCAMSEEQFRQRYPLG [S21Y] the value was 2.96; for FQELAGKELCAMSEEQFRQRFPLG [S21F], 3.17; for FQELAGKELCAMSEEQFRQRLPLG [S21L], 2.6.
Consider FQELAGKELCAMSEEQSRQRSPLG [F17S], for which the protein stability index stood at 3.14.
The same measure, in the same setting: then FQELAGKELCAMSEEQKRQRSPLG [F17K], with 3.25; and FQELAGKELCAMSEEQPRQRSPLG [F17P], with 3.28.
The same measure, in the same setting: for FQELAGKELCAMSEEQVRQRSPLG [F17V] the value was 3.1; for FQELAGKELCAMSEEQTRQRSPLG [F17T], 3.63; for FQELAGKELCAMSEEQMRQRSPLG [F17M], 2.66.
The same measure, in the same setting: for FQELAGKELCAMSEEQQRQRSPLG [F17Q] the value was 3.34; for FQELAGKELCAMSEEQYRQRSPLG [F17Y], 2.93; for FQELAGKELCAMSEEQWRQRSPLG [F17W], 2.67.
As to FQELAGKELCAMSEEQRRQRSPLG [F17R], the protein stability index was determined as 2.97.
Still for that read-out and setting: for FQELAGKELCAMSEEQNRQRSPLG [F17N] the value was 3.02.
For FQELAGKELCAMSEEQLRQRSPLG [F17L], the protein stability index was 3.14.

The record behind these values is the supplement of paper PMC10567573.
